Assay results taken from patent JP2010235447A (dated 2010).
Residue numbers refer to the chain shown, from its start.

B1: マウス抗ヒトCD36モノクローナル抗体 クローン1-3 (antibody, mouse IgG2b, V domains shown)
VH: QAQLQQSGAELVRPGASVTLSCKASGYTFTDYEMNWVKQTPVHGLEWIGAIDPEIGGSAYNQKFKGKATLTADKSSSTAYMELRSLTSEDSAVYYCTRSKLPAWFPYWGQGTLVTVSA
VL: EIKMTQSPSAMYASLGERVTITCKASQDINSYLSWFQQKPGKSPKTLIYRANRLVDGVPSRFSGSGSGQDYSLTISSLEFEDMGIYYCLQYEEFPYTFGGGTKLEIK
notes: also called クローン1−3; 抗CD36抗体
B2: マウス抗ヒトCD36モノクローナル抗体 クローン1-36 (antibody, mouse IgG2b, V domains shown)
VH: QVQLQQSGAELVRPGASVKLSCKALNYTFTDYEMHWVKQTPVHGLEWIGGIHPGSGGTAYNQRFKGKATLTADKSSSTAYIEVSSLTSEDSAVYYCSLTTASAWFAYWGQGTLVTVSV
VL: B1 VL with E1D, A10S, V55L, F80Y, E92D, Y96L, G100A, I106L
notes: also called クローン1−36; 抗CD36抗体
B3: マウス抗ヒトCD36モノクローナル抗体 クローン2-66 (antibody, mouse IgG1, V domains shown)
VH: QVQLQQPGAELVKPGASVRMSCKASGYTFTNYNMHWVKQTPGQGLEWIGVIYPGNGDTSYSQKFKGKATLTADKSSRTGYMQLSSLTSEDSAVYYCTRSGWDDWFFDVWGAGTSVTVSS
VL: DVLMTQTPLSLPVSLGDQASISCRSSQSIVQRNGITYLEWYQQKTGQSPKLLIYKVSNRFSGVPDRFSGSGSGTDFTLKISRVEAEDLGVYYCFQGSHVPPTFGGGTKLEIK
notes: also called クローン2−66; 抗CD36抗体
B4: マウス抗ヒトCD36モノクローナル抗体 クローン4-62 (antibody, mouse IgG2a, V domains shown)
VH: QIHLVQSGPELKKPGETVKISCKASGYTFTNYGMNWVMQAPGKVLKWMGWINTYTGETTYADDFKGRFAFSLETSASTAYLQINSLKYEDTASYFCARDDGYSFYYDMDYWGQGTSVTVSS
VL: B3 VL with Q31H, R32T, I35N, E39Q, Q42L, T45P, R82T, P101W
notes: also called クローン4−62; 抗CD36抗体

Target: T1, CD36 (CD36発現細胞; pcDNA-CD36を一過性に導入した293T細胞) (human, UniProt P16671 2-472)
T1 construct: whole, on cells; also called ヒトCD36; CD36発現株
Assay: flow cytometry of hybridoma supernatants on CD36-expressing cells

T1 sequence (P16671 2-472): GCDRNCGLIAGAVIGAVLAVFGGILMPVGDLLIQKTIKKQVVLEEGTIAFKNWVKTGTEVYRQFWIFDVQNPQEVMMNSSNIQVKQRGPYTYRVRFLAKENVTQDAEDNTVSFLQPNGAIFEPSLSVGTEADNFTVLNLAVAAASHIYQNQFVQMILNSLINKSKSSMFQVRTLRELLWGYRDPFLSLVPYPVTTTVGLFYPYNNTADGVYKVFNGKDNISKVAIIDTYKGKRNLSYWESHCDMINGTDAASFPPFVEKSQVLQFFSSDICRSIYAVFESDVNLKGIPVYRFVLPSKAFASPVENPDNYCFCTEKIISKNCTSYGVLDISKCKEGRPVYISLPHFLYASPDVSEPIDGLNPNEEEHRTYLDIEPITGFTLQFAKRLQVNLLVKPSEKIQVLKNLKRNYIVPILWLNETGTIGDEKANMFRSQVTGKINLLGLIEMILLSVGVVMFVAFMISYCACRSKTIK

Binding result, binds:
B1
B2
B3
B4
